Results from article PMC6102588, “Quaternary Structure, Salt Sensitivity, and Allosteric Regulation of β-AMYLASE2 From Arabidopsis thaliana” (Frontiers in Plant Science, 2018).

Legend:
[1] = molecular target: BAM2 N-terminal deletion mutant (NDel), lacking the acidic region (Arabidopsis thaliana) (UniProt O65258); assay: SEC-MALS; proteins at 1-2 mg mL^-1 injected into a 4.6 x 300 mm size-exclusion column, 0.5 mL min^-1, 10 mM MOPS, pH 7, 250 mM KCl; masses are averages, n = 3
[2] = molecular target: the molecule itself; assay: as above

| Molecule | stoichiometry N [1] | stoichiometry N [2] |
| --- | --- | --- |
| BAM2 N-terminal deletion mutant (NDel), lacking the acidic region (from UniProt O65258 86-542) (enzyme) | 4 | – |
| Arabidopsis thaliana β-AMYLASE2 (BAM2), wild type, without chloroplast transit peptide (enzyme, UniProt O65258 56-542, looked up, β-amylase 2 (BAM2), Arabidopsis thaliana, NP_191958.3, lacking its predicted 55 amino acid N-terminal chloroplast transit peptide; the start at residue 56 is worked out from that statement; Expression vector in pETDuet-1; Predicted monomer mass without transit peptide is 57.1 kDa; also called WT BAM2; WT; source: E. coli BL21+, purified by the N-terminal 6-His tag) AESTEEDRVPIDDDDDSTDQLVDEEIVHFEERDFAGTACVPVYVMLPLGVIDMNSEVVEPEELLDQLRTLKSVNVDGVMVDCWWGIVESHTPQVYNWSGYKKLFQMIRELGLKIQVVMSFHECGGNVGDDVHIQIPEWVREIGQSNPDIYFTDSAGRRNTECLTWGIDKQRVLRGRTALEVYFDYMRSFRVEFDEFFEEKIIPEIEVGLGPCGELRYPSYPAQFGWKYPGIGEFQCYDKYLMNSLKEAAEVRGHSFWGRGPDNTETYNSTPHGTGFFRDGGDYDSYYGRFFLNWYSRVLIDHGDRVLAMANLAFEGTCIAAKLSGIHWWYKTASHAAELTAGFYNSSNRDGYGPIAAMFKKHDAALNFTCVELRTLDQHEDFPEALADPEGLVWQVLNAAWDASIPVASENALPCYDREGYNKILENAKPLTDPDGRHLSCFTYLRLNPTLMESQNFKEFERFLKRMHGEAVPDLGLAPGTQETNPE | – | 4 |
| BAM2 F238A mutant (Interface B) (enzyme, Arabidopsis thaliana, UniProt O65258 56-542, looked up, β-amylase 2 (BAM2), Arabidopsis thaliana, NP_191958.3, lacking its predicted 55 amino acid N-terminal chloroplast transit peptide, with Phe238 changed to Ala; Made by QuikChange mutagenesis in the WT pETDuet-1 construct (Monroe et al., 2017); also called B2_F238A; source: E. coli BL21+, purified by the N-terminal 6-His tag) AESTEEDRVPIDDDDDSTDQLVDEEIVHFEERDFAGTACVPVYVMLPLGVIDMNSEVVEPEELLDQLRTLKSVNVDGVMVDCWWGIVESHTPQVYNWSGYKKLFQMIRELGLKIQVVMSFHECGGNVGDDVHIQIPEWVREIGQSNPDIYFTDSAGRRNTECLTWGIDKQRVLRGRTALEVYADYMRSFRVEFDEFFEEKIIPEIEVGLGPCGELRYPSYPAQFGWKYPGIGEFQCYDKYLMNSLKEAAEVRGHSFWGRGPDNTETYNSTPHGTGFFRDGGDYDSYYGRFFLNWYSRVLIDHGDRVLAMANLAFEGTCIAAKLSGIHWWYKTASHAAELTAGFYNSSNRDGYGPIAAMFKKHDAALNFTCVELRTLDQHEDFPEALADPEGLVWQVLNAAWDASIPVASENALPCYDREGYNKILENAKPLTDPDGRHLSCFTYLRLNPTLMESQNFKEFERFLKRMHGEAVPDLGLAPGTQETNPE | – | 2 |
| BAM2 W456A mutant (Interface A) (enzyme, Arabidopsis thaliana, UniProt O65258 56-542, looked up, β-amylase 2 (BAM2), Arabidopsis thaliana, NP_191958.3, lacking its predicted 55 amino acid N-terminal chloroplast transit peptide, with Trp456 changed to Ala; Made by QuikChange mutagenesis in the WT pETDuet-1 construct (Monroe et al., 2017); also called B2_W456A; source: E. coli BL21+, purified by the N-terminal 6-His tag) AESTEEDRVPIDDDDDSTDQLVDEEIVHFEERDFAGTACVPVYVMLPLGVIDMNSEVVEPEELLDQLRTLKSVNVDGVMVDCWWGIVESHTPQVYNWSGYKKLFQMIRELGLKIQVVMSFHECGGNVGDDVHIQIPEWVREIGQSNPDIYFTDSAGRRNTECLTWGIDKQRVLRGRTALEVYFDYMRSFRVEFDEFFEEKIIPEIEVGLGPCGELRYPSYPAQFGWKYPGIGEFQCYDKYLMNSLKEAAEVRGHSFWGRGPDNTETYNSTPHGTGFFRDGGDYDSYYGRFFLNWYSRVLIDHGDRVLAMANLAFEGTCIAAKLSGIHWWYKTASHAAELTAGFYNSSNRDGYGPIAAMFKKHDAALNFTCVELRTLDQHEDFPEALADPEGLVWQVLNAAADASIPVASENALPCYDREGYNKILENAKPLTDPDGRHLSCFTYLRLNPTLMESQNFKEFERFLKRMHGEAVPDLGLAPGTQETNPE | – | 2 |
